Reference: the NTF2 design screens of Basanta et al. (2020)

Assay: protease stability score; higher = more stable; yeast display proteolysis, trypsin and chymotrypsin;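 note: relative to predicted unfolded state with 0 unfolded-like and 1 meaning tenfold more protease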

| Sequence | protease stability score |
| --- | --- |
| DEERELYKRHWDRLNRAIHTGDEEEVRRLADPDYKIRIGDKTLHGREDIKKFLEHIRISVESFEIKDMHDIDGVIEVDGKVELRLVVDGRTFRIETRVVYYILKVNGRWLMHSEIYH | 0.82 |
| DEERENAERMLKAWVEILETGDEHRISRLLDPNVQFQIGDKHLHGREDVLRHLSEMIKKVKNLTISIHSINIQGDKVHVDGHIHVNGVDHKNDLILLKVNGRWFVTSLKIE | 1.78 |
| DEERENIEKALRLLEHFNKTGNEEDINRLMDPHARSHINGKDVHGREEVVRMLRELGVERIEVEDLEIERSKQVDGRIEIHVHTVVNFNGRHTEFRVEIIAVKVNGKWIMRSVIFE | 1.56 |
| DEERERREDETRLLLEILITGDEDRFRQLADPHMKLHIGDKDFIGREVAVKFLRDLWREFGIKHILFEDSTIVGDKLEHRMHLEVNGKRRRMELENVIIDGRVHSMHIRIH | 1.39 |
| DEERHDAEEASREIMRSYETGDETEYLNLLDPHARMTVGDKEFHGREDILRWWHELNEKLGVDRIHLHLEHIRVINGVVESHVRLNVNGREHRVELLVYKVNGRWLIREMHFR | 1.68 |
| DEERHEALRVAKEFMHNFWTGNEELNRHLIDPNVRLTIEVGDKRIDRVGRESFSHTLHRWREHLRIEDLDETRIDVQGDKAVLHTIMHIKIGDKHITVEVDINILVVDGRLRHIRVIVR | 2.01 |
| DEERHHFERVYEELMHVRRTGDWERYWELLDPDARLEINGQKYHGREDVLKAVTDIMRHWREKEFDFKRMDVQGDKVKIEGRVNGNFNGRDINTDVEIQITVVDGRLRHERFIIK | 1.71 |
| DEERHILEELMRILTEAMHTGDEHLLEWLLDPHMIIEIGDKTLHGRDQILRVVEEIRRHIRRIEVKHSHVQGDKIRIEGHMHSETEFNGRRFSFTVYVEIIIVKINGVWRIRSLHIH | 1.39 |
| DEERHYVEHIIKLLSRHIYTGDFEAFEELLDPNALIIIGDKHLVGREDWRRLVHEIRIRNEHVEIEDVNVYDGRAESKVTFHGRREYDGRTTETNLDVNYFLLKINGRWVFESLEIR | 1.67 |
| DEERKDFEEALKKWLESMETGDEKHLEELFDPNAKFLIDGVELHGREVFKEFLRRFKNVRVEELHLDHLEVQGDKVITHVTFRGTFNGKHENVHRILIAVKFDGRWFVRSIEVH | 2.34 |
| DEERKDTKEAIERVRDTWRTGDEQDIFNNVDPNTRMIVGDKHHHGMEDVARLAFEWRVHDFRFHEVHSSEDHVILDGRVDGEINGRRINTKMILILLKIDGRWHIESIQYI | 0.805 |
| DEERKEFEEVFRQWIHALRTGDEDSELRNLDPNARIVVGDKEVHGREESERYLRETLHRADHMDFELHRLDVQGDKVHIDGTMILVVNGQEIRYRIHFISVKIDGRWLLRSVIIH | 1.86 |
| DEERKELEEALRELKHSWETGDWRSLSEMADPNVLLKQGDFEYHGRELFLEFMRHLIEHLGIKHVEIRDMKIFENRVDMDVIIRFNGQTTRIQIILVKFNGRWFIKSVIIR | 2.02 |
| DEERKESQKALELMLELFQTGDEEELSKFADPHVRLEFRVGDKRFEIHGREEVSRFFHELIWRIKNLRLTRHNDEVQGEKVIIHFELRQGDKRSEINIIAIKINGRWFIKHETVILL | 1.62 |
| DEERKETEEATRQDIHDFRTGDEKSFDEFFDPNVRLDINGVRVHGRELASKWFRDFFRELGVKHSEIEHREIQGEKAIVNEDVRVGDKRVEVILVYLKINGRWEITTVTLRHE | 1.05 |
| DEERKEYEDALTLFIEYLLTGDFERLEHLADPTTRLIVNGQEFHGRELVMRQLLEIRFHDHKLHDYKVVNGVAILDTRDRGIINGQETIFKTHIVLQKIDGRWVLRRYEIR | 1.38 |
| DEERKFLKKMHEILDKSERTGNEEDIMRLVDPEVRLTVGDKELHGWSAMHEYFKRWIDKFPGVRVHFELNDITIVDGRILNIVHTKFEFDGREFQLTATIFAHKYDGRWTLTSMRYE | 1.09 |
| DEERKFWEEVMRLMREAFETGDEHLIERMADPHVRINIIVDGREIEFHGWEILVDLMKFVKGMQFTLKDSDIINGVLKIDGKTRQGDKITDVEIEFHVVNGRVKEIHVHIL | 2.48 |
| DEERKFWHELAELLFHIHLTGDEDMLRHLLDPHVRSDINGVELHGREQAAEHFHKLMKTLGVKHIHHKRMHTIGDKTIIHGESEVDGRILHVHNHFWVVNGKVEEVKMHIE | 0.495 |
| DEERKHSEDLKDMHLKSMLTGDEEFISHLADPNVRIVFNGRDLHGRELLHEILKRINEELGVSNIEVRLHHIEIVGEWVHIHGRLHWNGRTSRIHLLLFKIDGQWNIKSIHIEIE | 1.22 |
| DEERKIAEKFAELYQHWEHTGNEDEMRSFFDPNYRLFVGEKEFVGRKTRSRWHREYIEKLGVDHVEIQDYRVQGNFVESDLVLRFNGREVKTEIRINVIDGRIKEVHIITH | 0.198 |
| DEERKIVEKWANEFLQAQITGDEDWFREYADPTTRYNLHIGDYDLHLHGRELVLTFLHEILRKFKNIKIEIKRRNIQGEKTDIDGVENYNGVEHRVRIHLVVINGQLKSYTIKEH | 0.604 |
| DEERKIVLESVRLWLDEWETGDESALEKLMDPNVRVIIGDKTVHGREQMIKFLREWLTRYDHLEIKLRDIKVIGDKIHVESEFRYHIGDKELSHRTNVVLKIVDGKLKSVRVDFE | 1.93 |
| DEERKLATELFKWLIDLYLTGDEETFEKLADPHYLSDVNGRNIHGMELISHIWREEIEKYGWEIHIKIRHIELQGDKSKSETEIHNNYDGRRIVFETRIIVRIVNGRIKSIEVRFR | 1.28 |
| DEERKMYTYAHKLLKTSHDTGNEDDLTNLVDPNVRIDINGRDIHGWDFWHEMMTKLGVNVFETKHVELQGNKLHIDGTLHVDGRTHRVTINNIKIDGRWIIKHVHIE | -0.3 |

| Sequence | protease stability score |
| --- | --- |
| DEERKRSEELMKLEIHVFETGDWEWYREMADPNTRMHIDGKDFHGREEIYKFLHEHHLRFKNIKIHFEHIELQGEYVHNDVIIHVNGVDLIAHIIIVVVNGRVTHSEFQLE | 1.17 |
| DEERKSTELALKHWHESMRTGDEHDTRRMMDPNVRVEIGDKTYVGREDVLEFMHRLGANHVEHFEIEDWKIVNGKVVMHGHSRVRIGDFEANTEVIIFSQKFNGRWFLESVIIV | 0.656 |
| DEERKWTKEALDKLLRVIATGDEDFINQNADPRVRLEINGVEIHGRELWHKILKDHSERMGVKHTHLESHDEFNGVITIHMRLFVGDKETRIEIINLKVDGKWIIKSLRIE | 1.22 |
| DEERQESEEALRHSMELWATGDFESLSRNVDPNVRVEIGDKTFHGWEIAHELFHKIKNLTVHLEDHEIQGEKVTIHGVLNFNGKREHVRLYSKKVNGRWILEKVQVG | 2.17 |
| DEERQRAHKWMHDWIKAYLTGDEEHQNQMLDPNMRIEYGDKTHHGRDILIEIFREELRQVDHIEIRIRHIDNFEGRVRTDGELHVKINGRREHYDIILEYDVVNGKLKIERWDIR | 1.45 |
| DEERQTLEEWARELLQIHKTGDEERHKEYADPDDLLRIGDKDFHGMEHVLHALVQHWEKMGVKHLEIKRLRVINGVMHVEGVLHVGDKTHDVKLHLFIFNGRIERVEIRIE | 1.33 |
| DEERRHFEHFFHLWEQIMVTGDEDMARMLADPNVRIQVGDKKYHGREHFAELIKHLRVERIRIHTFRLYDGRIELIIHVHGNVNGQRDEFETRSHTIKVDGVWVIHSFHID | 1.6 |
| DEERRRAKKFLEQFVRNVETGDEELHYHLADPHMKVKIGDKEFHGMEHWIEWFHRFGFDHMEIELKDIRVQGDKAHIDGRLHVDYNGREHSTNVELVVRKVNGRWRLHELRVE | 1.28 |
| DEERRRDEEDWRFLEHVWETGDFDALVNMIDPNVRIEFEGRTHHGREDASHLIKRLGVKYFEVKSQNIQGDYIIDDVEFRVGEYRTRVRIIIHKIDGKWYIHSLHIL | 0.913 |
| DEERRSSEEYVRTLHDIIRTGDEDRLVRLADPHARLEVGEFHFHGREELEHFWRKIIEHFGHDKIEVRIESVEVQGEKIVNVGKLSVNGQEREIIFIALKYNGRWITRSIHLH | 1.59 |
| DEERTLVEELIQIFVEALETGDFETLSKMFDPHALFLQGDKRFVGRKDIEKWIHDLVRRLGVNHIEIDKITVQGEKAHVDTRVHIGDKTSTIHILIVKVNGRWFVEEIRYH | 1.17 |
| DEERVKQVQKKAFEAVMKGNDDEMRKIGKPNVRYEYIDEKNEGQEAVDVVIQLVKKVGAEAKVRRTEVKGDTVRAIFVYNDGDQTVQTKVEVKYEGDKVKEARVELTDEVQKVLHKG | -0.027 |
| DEESEDAKRVLDEWLHMLDTGNEERLHELADPNMRFDVNGKEIHGMEIWQKEMKRSLTHHGAEMHHRIRTIEVQGNKILVDGELIINFNGRTYLHKIHIIFQKFDGRWHVESLTIK | -0.052 |
| DEESEKVEHFLEELFRAMETGDEDQFRKLMDPNVRASYGDKEVHGRNDILHWIREYRERVKNLKLEVHRVRVRIYNGRVEIEMDTILRINGKEHKVTLTFDVTKVNGRWFIEHVEVEVR | 1.37 |
| DEESKESHDIMRILLHIFRTGDEHKLKEMADPNTLFHIGDKEFHGREEFVHFLREVFEKIKNIKHRITDIKDVGDKIHVEVEEKVNGRHRHVELIWLVVDGKIQWYEIRIR | 1.23 |
| DEESKFLTEMLEDILRALITGDEEHLQTLMDPDVRVEVGDKLFIGREQASEFWRREFEEIRIDDFRIHHLEVIDGRVHVHGRVDGTIGDKHHRREIIIHDLIVNGRIKKIRIEIH | 1.31 |
| DEESRLIEEFIKKVTHALRTGDEHRMHHLLDPHVRFYIGDKFLIGRENMAHLIRWLIEHLGVDHTHLESSSIINGKSFLDTRMHVDGQEIEVRFIIVLFDGVVNRVHYQIE | 1.1 |
| DEETEDLRRWFEALLRSTHTGDFHTLNRLIDPNVRMDVGDKRHHGREFFEHLLRRADHIKIELEDYEFQGNKVIFHGKLIIHYNGQDLEYKSSMDAEKVDGRWIVRRVYLE | 1.58 |
| DEETEEERKITELSLKAYKTGDEDTLSSLIDPHARFIYNGRHHHGRETASHILRRETERLGVKHIHLKDTEIDDVNGVVDMRIHMMVHYGNKTTELIIILRITKFNGRWIIETIEVRVR | 0.691 |
| DEETEEIELAFHFFQHAYETGNEEVLMELADPDVKIDVNGRKLHGRERVWKFLIHHWHHLGIKHIHMDRIEIYGNKVVVDGEIKYGDKSDETIMYVVKVDGRWKLEMIEVK | 1.47 |
| DEETEIEKHAMEHIFRANETGNWREILEMIDPNVKIEYGDKERHGMTIYLEILELWGITKIHLDIQSIRVINGRMDIHGRIVFNGKTHTVDLHLLKVDGRWILTEIRVR | 1.3 |
| DEETEILKKVVKEMRKIMHTGDEHEIHRYLDPNARLDVDGREVHGREALLEFLRKFKGMTVHIDDVEDIGDKIFIDHELRFDGVTRKSEIISNKINGRWHVESVHIR | 0.357 |
| DEETEISRRALKIFLDTIHTGDPRELKENLDPSVRIIINGVHYHGRESFEHVLERVEKSAGVDRVHVELRDFRIYGDKVEVEVTNHFNGRTEIDHFILRKVNGRWYIHEVEFE | 2.18 |
| DEETEIVERYERILVKALTTGDWRRIERLMDPNVKSVVNGREYHGMERYLELYRRIRSEIRINDLRIHKVTEVGNKIEAITVWHVEVDGRIEDLETRVFLRKIDGRWILEREEVA | 0.827 |
| DEETEKDKFLSEVFRHSLMTGDWESELKYADPHARTVVNGRTIHGMRESWEHLKELLERLGAKYIKIRDMDSHIQGDKVLININGELHVGDKTIETRIHLIVRKVNGQWHIEELRFDFK | 0.993 |
